In PMC3628515 (The Journal of Cell Biology, 2013):

Molecular target: T1, FAP100-HA (FAP100/Mia1p with a triple HA tag, in the rescued strain mia1R) (C. reinhardtii, UniProt A8I4E9 1-576)
T1 sequence (looked up): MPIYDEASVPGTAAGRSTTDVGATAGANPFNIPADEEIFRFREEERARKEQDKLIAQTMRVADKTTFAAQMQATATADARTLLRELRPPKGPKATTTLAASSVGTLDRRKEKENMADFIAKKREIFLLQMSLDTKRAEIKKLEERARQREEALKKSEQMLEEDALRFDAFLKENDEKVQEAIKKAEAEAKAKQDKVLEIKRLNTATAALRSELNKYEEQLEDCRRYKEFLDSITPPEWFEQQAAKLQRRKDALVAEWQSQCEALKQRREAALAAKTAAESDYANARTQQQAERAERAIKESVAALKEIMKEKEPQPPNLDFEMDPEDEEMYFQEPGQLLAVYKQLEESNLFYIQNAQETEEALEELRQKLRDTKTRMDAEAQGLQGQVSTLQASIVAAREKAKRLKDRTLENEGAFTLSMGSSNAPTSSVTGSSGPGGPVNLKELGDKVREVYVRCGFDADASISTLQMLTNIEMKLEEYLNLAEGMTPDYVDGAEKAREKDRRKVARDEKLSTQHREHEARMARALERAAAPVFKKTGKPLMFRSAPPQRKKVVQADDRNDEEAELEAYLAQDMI
Assay: affinity purification with mass spectrometry

- stoichiometry N: 1.83 to 2.89 FAP73 per FAP100
B1: FAP73 (Mia2p), endogenous (natural protein, UniProt M1V4Y8 1-308, looked up)
chain: MDEEGSATARAKMMPQTLVLDHVSPATRLLEKRRQMFEVQEALEAQKQDFNRKEEVFKRREEALKLKDLELQESLIRFSKFLQENDSKRARAEKKANDEIKARIQKEKEIEQLTEVLEELKSEKERILEVLEKNMRYQHYLESVLEVADEYQEVADLLLRHATLSATNADLKDHQRKCSELAEKVRTELQIYVKQKTDEILNLNNQVAKLKTELEGYEAEAMVQEAKKDSSLQIASQRTLEYGQVVLSADNIFNRCRSKSSIGHPAESNPLHQLDVIGNFVSDLGSIIKQFKQEQAKRASLASRAEIE
